# Source: patent US20230192902A1, “ABCG2 EFFLUX PUMP-CANCER ANTIGEN MULTI-SPECIFIC ANTIBODIES AND COMPOSITIONS, REAGENTS, KITS AND METHODS RELATED THERETO” (Kenjockety Biotechnology, Inc., priority 2020, published 2023)
# Where a chain is given by its changes, count along the chain named.
# B1: 5D3hVHv1DDKT14KK5D3hVLv1: bispecific ABCG2/CD47 antibody: humanized 5D3 VH version 1 (DD), 5F9 HC (KK), humanized 5D3 VL version 1 common light chain (antibody, V domains shown)
# VH 1: EVQLQESGPGLVKPSETLSLTCTVSGFSITSDYAWNWIRQPPGKGLEWMGYINFDGGTTYNPSLRGRITISRDTSKNQFSLKLSSVTAADTAVYYCATFYGAKGTLDYWGQGTLVTVSS
# VH 2: QVQLVQSGAEVKKPGASVKVSCKASGYTFTNYNMHWVRQAPGQRLEWMGTIYPGNDDTSYNQKFKDRVTITADTSASTAYMELSSLRSEDTAVYYCARGGYRAMDYWGQGTLVTVSS
# VL: DIQLTQSPSSLSASVGDRVTITCKASGYILNRLAWYQQKPGKAPKLLISGATSLETGFPSRFSGSGSGKDYTLTISSLQPEDFATYYCQQYWSTPWTFGGGTKLEIK
# B2: 5D3hVHv2DDKT14KK5D3hVLv1: bispecific ABCG2/CD47 antibody: humanized 5D3 VH version 2 (DD), 5F9 HC (KK), humanized 5D3 VL version 1 common light chain (antibody, V domains shown)
# VH 1: B1 VH 1 with M49I, I68V
# VH 2: B1 VH 2
# VL: B1 VL
# B3: 5D3: anti-ABCG2 antibody 5D3; VH SEQ ID NO:5, VL SEQ ID NO:1; tested with human IgG1 constant regions (antibody, V domains shown)
# VH: QVQLQESGPGLVKPSQSLSLTCTVTGFSITSDYAWNWIRQFPGKKLEWMGYINFDGGTTYNPSLRGRISITRDTSKNQFFLQLRSVTPEDTATYYCATFYGAKGTLDYWGQGTSVTVSS
# VL: DIVLTQSPSSFSVSLGDRVTISCKASGYILNRLAWYQQKPGNAPRLLISGATSLETGFPSRFSGTGSGKDYTLSISSLQTEDVGTYYCQQYWSTPWTFGGGTKLEIR
# modifications: human IgG1 constant regions
# notes: anti-ABCG2 antibody 5D3; tested with human IgG1 constant regions
# B4: 5D3DDKT14KK5D3: bispecific ABCG2/CD47 antibody: HC and LC from anti-ABCG2 antibody 5D3 and a HC from anti-CD47 antibody 5F9; DD/KK charged pair substitutions (antibody, V domains shown)
# VH 1: B3 VH
# VH 2: B1 VH 2
# VL: B3 VL
# System: 293T_ABCG2_OX cells (293T cells stably transfected to express ABCG2)
# Assay: Topotecan cytotoxicity assay in the presence of antibodies (CellTiter-Glo)
# Type: cell-based, human
# Conditions: FIG. 1; 293T cells overexpressing ABCG2; 72-96 hr; IC50 values only in the figure
# Description: Cytotoxicity Assays. The effect of antibodies on topotecan cytotoxicity was evaluated on 293T_ABCG2_OX cells, 293T cells stably transfected to express ABCG2. Cells were plated in 0.05 mL of Assay Media (DMEM +10% FBS) at 5000 cells/well in white, flat bottom 96-well tissue culture plates. Topotecan was prepared at 2X final assay concentration by serial dilution from 200 uM in assay media containing test antibodies or control antibodies at 100 ug/mL (2X final concentration), or Fumitremorgin C (FTC), a small molecule ABCG2 inhibitor at (2X final concentration). An equivalent volume (0.05 mL) of the topotecan/antibody mixture was added to the 293T_ABCG2_OX cells in 96-well plates. The plates were then incubated at 37° C., in 5% CO2. After about 72-96 hr plates were equilibrated to room temperature and cell viability assessed using Promega® CellTiter-Glo® Luminescent Cell Viability Assay according to the manufacturer’s recommended protocol. Luminescence was measured on a Molecular Devices® FlexStation® 3 Multi-Mode Microplate Reader and data analyzed using GraphPad Prism 8.0 software. Half maximal inhibitory concentration (IC50) is the concentration of drug (topotecan or other chemotherapy cytotoxic agent) where the response (cell growth) is reduced by 50%.
row,Molecule,susceptibility of cells to topotecan in the presence of the antibody
1,B1,increased susceptibility to topotecan
2,B2,increased susceptibility to topotecan
3,B3,increased susceptibility to topotecan
4,B4,increased susceptibility to topotecan
